For experiment [1], the target named is T1, NGF Lys-C peptide K1 (37.6) SSSHPIFHRGEFSVCDSVSVWVGDK (human, Cysteine residues were reduced and carboxymethylated).
T1 construct: Calculated mass 2821; observed mass 2828.2
T1 peptide: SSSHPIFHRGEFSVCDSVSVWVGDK
Kind of experiment: Lys-C digest of NGF incubated with antibody, Microcon 100 separation, reversed phase HPLC.

Experiment [2] addresses T2, recombinant human NGF 1-120 (human, UniProt P01138 122-241). Kind of experiment: cell-based or functional assay.
Target sequence in this assay (P01138 other isoform, or with tags, fused parts or gaps, form in doubt): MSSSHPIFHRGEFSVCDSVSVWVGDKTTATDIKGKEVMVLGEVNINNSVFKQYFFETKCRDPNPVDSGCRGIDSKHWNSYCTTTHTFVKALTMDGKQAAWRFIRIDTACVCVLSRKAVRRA
Experiment [3] concerns the target T2, recombinant human NGF 1-120. Nature of the experiment: KinExA; 10 pM and 30 pM Ab 4D4 equilibrated with huNGF in solution for 8 h, free antibody captured on huNGF-coated beads, dual-curve one-site fit.
Target sequence in this assay (P01138 other isoform, or with tags, fused parts or gaps, form in doubt): as above
Experiment [4] deals with T3, NGF subtilisin peptide S1 (4.4) SRKAVRR (113-119) (human).
T3 peptide: SRKAVRR
Nature of the experiment: subtilisin-digested NGF incubated with antibody, Microcon 10 separation, HPLC of bound and unbound fractions.

In experiment [5] the target is T4, NGF subtilisin peptide S2 (28.3) EVMVL (35-39) (human).
T4 peptide: EVMVL
The description is as above.

Experiment [6] deals with T5, NGF Lys-C peptide K2 (39.5) QAAWRFIRIDTACVCVLSRK (human, Cysteine residues were reduced and carboxymethylated).
T5 construct: Calculated mass 2452; observed mass 2459.5
T5 peptide: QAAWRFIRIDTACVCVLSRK
Kind of experiment: Lys-C digest of NGF incubated with antibody, Microcon 100 separation, reversed phase HPLC.

Experiment [7] deals with recombinant rat beta-NGF (R&D Systems) (rat, UniProt P25427 122-241). Nature of the experiment: cell-based or functional assay.
Sequence of recombinant rat beta-NGF (R&D Systems) (P25427 122-241 limits assumed): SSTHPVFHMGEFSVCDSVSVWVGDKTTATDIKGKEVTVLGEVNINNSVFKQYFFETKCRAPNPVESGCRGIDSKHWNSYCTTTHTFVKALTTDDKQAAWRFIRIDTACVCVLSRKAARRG
Experiment [8] deals with T2, recombinant human NGF 1-120. Kind of experiment: cell-based or functional assay. The source holds these as a separate data set.
Target sequence in this assay (P01138 other isoform, or with tags, fused parts or gaps, form in doubt): as the sequence (P01138 other isoform, or with tags, fused parts or gaps, form in doubt) above
Experiment [9] concerns the target T6, synthetic hNGF peptide 33582-27-17 TTTHTFVKALTMDGKC (81-95) (human, C-terminal cysteine tail, conjugated to a maleimide activated plate).
T6 construct: also called Peptide # 17; peptide #17
T6 peptide: TTTHTFVKALTMDGKC
Kind of experiment: peptide ELISA, Ab binding signal; peptide #17, L4, 81-95.

The target of experiment [10] is T7, synthetic hNGF peptide 33582-27-21 FIRIDTAAVAVLSRKC (101-115) (human, C-terminal cysteine tail, conjugated to a maleimide activated plate).
T7 construct: also called Peptide # 21
T7 peptide: FIRIDTAAVAVLSRKC
Nature of the experiment: peptide ELISA, Ab binding signal; peptides # 20-21, C-terminus, 96-115.

For experiment [11], the target named is T8, synthetic hNGF peptide 33582-27-20 QAAWRFIRIDTAAVC (96-110) (human, conjugated through cysteine to a maleimide activated plate).
T8 construct: also called Peptide # 20
T8 peptide: QAAWRFIRIDTAAVC
The description is as above.

For experiment [12], the target named is T9, synthetic hNGF peptide 33582-27-16 WNSYATTTHTFVKALC (76-90) (human, C-terminal cysteine tail, conjugated to a maleimide activated plate).
T9 construct: also called Peptide # 16; peptide #16
T9 peptide: WNSYATTTHTFVKALC
Kind of experiment: peptide ELISA, Ab binding signal; peptide #16, internal, 76-90.

In experiment [13] the target is T10, synthetic hNGF peptide 33582-27-10 NSVFKQYFFETKARDC (46-60) (human, C-terminal cysteine tail, conjugated to a maleimide activated plate).
T10 construct: also called Peptide # 10; peptide #10
T10 peptide: NSVFKQYFFETKARDC
Nature of the experiment: peptide ELISA, Ab binding signal; peptide #10, L2, 46-60.

In experiment [14] the target is T11, synthetic hNGF peptide 33582-27-19 TMDGKQAAWRFIRIDC (91-105) (human, C-terminal cysteine tail, conjugated to a maleimide activated plate).
T11 construct: also called Peptide # 19; peptide #19
T11 peptide: TMDGKQAAWRFIRIDC
Nature of the experiment: peptide ELISA, Ab binding signal; peptide #19, internal, 91-105.

The target in experiment [15] is T12, synthetic hNGF peptide 33582-27-18 FVKALTMDGKQAAWRC (86-100) (human, C-terminal cysteine tail, conjugated to a maleimide activated plate).
T12 construct: also called Peptide # 18
T12 peptide: FVKALTMDGKQAAWRC
Kind of experiment: ELISA, peptide conjugated to maleimide plate, 4D4.IgG1 at 0, 3, 10, 30 ug/ml, anti-hFc-HRP.

Experiment [16] has as its target T13, synthetic hNGF peptide 33582-27-01 SSSHPIFHRGEFSVC (1-15) (human, conjugated through cysteine to a maleimide activated plate).
T13 construct: also called Peptide # 1; peptide #1
T13 peptide: SSSHPIFHRGEFSVC
Kind of experiment: peptide ELISA, Ab binding signal; peptide #1, N-terminus, 1-15.

In experiment [17] the target is T2, recombinant human NGF 1-120. Nature of the experiment: cell-based or functional assay. The source holds these as a separate data set.
Target sequence in this assay (P01138 other isoform, or with tags, fused parts or gaps): as the sequence (P01138 other isoform, or with tags, fused parts or gaps, form in doubt) above

B1: anti-NGF monoclonal antibody 4D4 (antibody, V domains shown)
VH: EVQLVESGGGLVQPGGSLRLSCAASGFTLRSYSMNWVRQAPGKGLEWVSYISRSSHTIFYADSVKGRFTISRDNAKNSLYLQMDSLRDEDTAMYYCARVYSSGWHVSDYFDYWGQGILVTVSS
VL: AIQLTQSPSSLSASVGDRVTITCRASQGISSALAWYQQKPGKAPKLLIYDASSLESGVPSRFSGSGSGTDFTLTISSLQPEDFATYYCQQFNSYPLTFGGGTKVEIK
notes: also called 4D4.D7; #124 (parent)
In the case of B1, the binding result in [1] is given as “binds”. Moreover, in experiment [2], the “IC50, inhibition of NGF-induced VR1 expression in rat DRG neurons; sample 119 (from 124)” value is below 1.2 nM; the “IC50, inhibition of NGF-induced VR1 expression in rat DRG neurons; sample 124 (parent)” value is below 0.57 nM; the “IC50, inhibition of NGF-induced VR1 expression in rat DRG neurons; sample 125 (from 124)” value was below 0.3 nM; the “IC50, inhibition of NGF-induced VR1 expression in rat DRG neurons; sample 167 (from same sample as 124)” value stood at 0.5 nM. Also, the Kd in experiment [3] is around 0.004 nM. Moreover, in experiment [4], the binding result is “binds”. For the same molecule, the binding result in experiment [5] was “binds”. For the same molecule, in experiment [6], the binding result is reported as “binds”.

B2: 4D4.IgG1 (recombinant anti-NGF 4D4 antibody with IgG1 heavy chain constant region) (antibody, V domains shown)
VH: B1 VH
VL: AIQLTQSPSSLSASVGDRVTITCRASQGISSALAWYQQKPGKAPKLLIYDASSLESGVPSRFSGSGSGTDFTLTISSLQPEDFATYYCQQFNSYPLTFGGGTKVEIKR
notes: also called 4D4.IgG1.S; human anti-hNGF Ab 4D4.IgG1
Consider B2, for which, in experiment [7], the “IC50 @ rNGF (nM), DRG neuron based NGF neutralization bioassay; 4D4.IgG1.R” value is above 34 nM. Besides, the “IC50 @ rNGF (nM), DRG neuron based NGF neutralization bioassay; 4D4.IgG1.S” value in experiment [7] is above 45 nM. Also, the “IC50 @ hNGF (nM), DRG neuron based NGF neutralization bioassay; 4D4.IgG1.R” value in experiment [8] stood at 0.149 nM. Besides, the “IC50 @ hNGF (nM), DRG neuron based NGF neutralization bioassay; 4D4.IgG1.S” value in [8] came out at 0.159 nM. Moreover, the binding result in experiment [9], in experiment [10], in [11], in [12], in [13] and in experiment [14] was “binds” in each case. Besides, the binding result in experiment [15] and in experiment [16] was “binds” throughout.

B3: anti-NGF antibody 14D11 (antibody, V domains shown)
VH: EVQLVQSGAEVKKPGESLKISCKGSGYNFTTYWIGWVRQMPGKGLEWMGIIYPGDSDTKYSPSFQGQVTISADKSISTAYLQWSSLKASDTAMYYCARNYYGSGTYYYYYGMNVWGQGTTVTVSS
VL: DIQMTQSPSSVSASVGDRVTITCRASQGISIWLAWYQHKPGKAPKLLIYAASSLQSGVPSRFSGSGSGTDFTLTISSLQPEDFATYYCQQANSFPWTFGQGTKVEIK
Regarding B3, the IC50 @ rNGF (nM), DRG neuron NGF neutralization assay; clone 14D11 in experiment [7] was above 20 nM. The IC50 @ hNGF (nM), DRG neuron NGF neutralization assay; clone 14D11 in experiment [17] is 0.28 nM.

B4: anti-NGF antibody 14D10 (antibody, V domains shown)
VH: EVQLVESGGGLVQPGRSLRLSCTASGFTFEDYAMHWVRQAPGKGLEWVSGISWNRGIIGYADSVKGRFTVSRDNAKNSLYLQMNSLRAEDTALYYCAKEGYYGSGRPGYFYYVMDVWGQGTTVTVSS
VL: EIVLTQSPGTLSLSPGERATLSCRASQSVSSGFLAWFQQKPGQAPRLLIYGASSRATAIPDRFSGSGSGTDFTLTISRLEPEDFAVYYCQQYGSSPYTFGQGTKLEIK
Take B4: in experiment [7], the IC50 @ rNGF (nM), DRG neuron NGF neutralization assay; clone 14D10 was above 13 nM. In experiment [17], the IC50 @ hNGF (nM), DRG neuron NGF neutralization assay; clone 14D10 was 0.392 nM.

Values taken from patent publication US20050074821A1 (Amgen, published 2005).
